The results in this text go back to article PMC3245779.

In the assay the target is BSG-S variant E92K (Ok(a-) variant) (human). Description: SPR. On the technique in general: SPR reads the build-up and loss of mass on a sensor chip optically.

With “PfRh5 (purified, SPR analyte) (from UniProt Q8IFM5 25-526) (ligand)”, the fold lower affinity than the BSG reference sequence (equilibrium) turned out to be 2 fold.
